Test results from the Human Domainome abundance scans (Beltran et al. 2025).

B1: DnaJ homolog subfamily C member 5, residues 16 to 77; numbered along this chain, Q9H3Z4 (parent)
chain: LYHVLGLDKNATSDDIKKSYRKLALKYHPDKNPDNPEAADKFKEINNAHAILTDATKRNIYD

Variants of: B1
Assay: abundance fitness (aPCA) (normalised: wild type 0, dead -1); higher = more abundant; growth selection in yeast, the domain comes from the species named
Settings: Homo sapiens

Abundance fitness: each site, then its substitutions
P33: N -0.365; V -0.225; F -0.351; E -0.035; K 0.209; T -0.098; C -0.327; D -0.16; Q -0.063; Y -0.34; S -0.121; M -0.489; H -0.798; R 0.064; I -0.501; G 0.111; L -0.507; A -0.032
N32: Y -0.67; F -0.24; H -0.009; S -0.3; G -0.434; T -0.251; P -0.691; R -0.431; W -0.179; L -0.684; D -0.282; M -0.157; A -0.349; K -0.353; V -0.396
D40: K 0.385; N -0.271; T 0.054; H 0.156; F 0.029; C -0.012; Q -0.03; W 0.046; V 0.194; P -0.258; Y -0.05; E -0.171; I 0.224; A 0.137; L 0.212; R 0.271; M 0.255
E37: R -0.117; H 0.004; I -0.406; C -0.206; V 0.041; N 0.042; Q 0.079; W -0.171; G -0.063; D -0.238; S 0.036; T -0.011; F -0.01; L -0.172; Y -0.226; M -0.217; P -0.441
K31: L -0.433; P -0.379; F -0.371; I -0.06; Y -0.207; A -0.065; H -0.195; Q -0.06; D -0.118; T -0.139; E -0.116; M -0.521; N -0.452; W -0.626; C -0.64; S -0.51
A38: F -0.194; I -0.043; T -0.292; C -0.401; P -0.559; D -0.137; E -0.193; S -0.088; R -0.279; W -0.305; L -0.243; M -0.13; Y -0.132; N -0.296; K -0.338; Q -0.371; H -0.169
A39: N 0.003; C 0.01; T -0.427; R -0.021; E -0.14; V -0.01; G -0.032; D 0.033; I 0.064; Q -0.227; K 0.095; P -0.301; Y 0.082; S -0.176; L 0.014; M -0.126; F -0.56
D34: I -0.586; N -0.299; M -0.694; V -0.591; K -0.006; Y -0.355; Q -0.206; L -0.641; G 0.068; A -0.145; H -0.411; P -0.623; W -0.944; C -0.783; R -0.251; E -0.079; T -0.257; F -1.01
K41: E -0.311; A -0.222; D -0.493; C -0.598
N35: F -0.309; H -0.197; V -0.255; G -0.281; Q -0.265; M -0.431; R -0.282; I -0.255; K -0.194; A -0.184; T -0.143; E -0.235; S -0.041; W -0.317; C -0.462
D30: Y -0.288; R -0.207; P -0.384; E 0.01; S 0.099; N -0.018; T 0.067; W -0.749; M -0.089; K 0.084; G -0.171; V -0.207; F -0.828
